Reference: patent US20120322975A1

Assays:
[1] = biological target: human factor D (purified from human serum) (human) (UniProt P00746); assay: cell-based or functional assay
[2] = biological target: dog factor D (in dog serum) (dog); assay: cell-based or functional assay; conditions: scale: times less effective than on human factor D

UniProt P00746, sequence (P00746 26-253 N180D): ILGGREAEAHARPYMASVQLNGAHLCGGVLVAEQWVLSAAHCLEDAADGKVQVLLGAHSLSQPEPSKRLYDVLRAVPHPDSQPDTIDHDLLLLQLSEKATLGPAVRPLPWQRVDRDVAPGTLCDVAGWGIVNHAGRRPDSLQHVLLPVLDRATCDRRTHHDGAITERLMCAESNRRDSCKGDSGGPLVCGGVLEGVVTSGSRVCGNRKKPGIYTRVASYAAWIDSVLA

Substance: MAb 166-32 (antibody)
- alternative pathway hemolytic activity of plasma from extracorporeal circuits (18 µg/ml antibody in human whole blood) (molar ratio (MAb:factor D)) [1]: 1.5
- inhibition of factor D dependent alternative pathway hemolysis of unsensitized rabbit RBCs (factor D depleted serum with supplemented factor D) [1]: 0.3 µg/mL
- neutralization of dog factor D in hemolytic assays, compared to human factor D [2]: > 10
